# From the RNAGym collection of RNA variant scans (doi:10.1093/nar/gkz1192)
# B1: CPEB3 Ribozyme (parent)
# chain: UAACAGGGGGCCACAGCAGAAGCGUUCACGUCGCAGCCCCUGUCAGAUUCUGGUGAAUCUGCGAAUUCUGCUGUAUAUCUC
# Variants of: B1
# Assay: self-cleavage, relative activity (ratio to wild type); higher = more cleavage; in vitro, sequencing
# Outline: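 After error-prone PCR and barcoding, CPEB3 ribozyme mutant libraries were transcribed with T7 RNA polymerase at 37°C for 5 hours, then given 15 min with DNase I before an EDTA stop, and they cleaved during both steps. Reverse transcription with template switching preceded Illumina sequencing. Relative activity divides a variant's cleaved/total read fraction by the unmutated ribozyme's. At least 5 reads were required per variant, and three batches were averaged.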
row,Variant,self-cleavage
1,UAACAGGGGGCCACAGCAGAAGCGUUCACGUCGCAGCCCCUGUCAGAUUCUGGGGAAUCUGCGAAUUUUGCUGUAUAUCUC [U54G C68U],0.68
2,UAACAGGGGGCCACAGCAGAAGCGUUCACGUCGCAGCCCCUGUCAGAUUCUGGGGAAUCUGCGAGUUCUGCUGUAUAUCUC [U54G A65G],0.3
3,UAACAGGGGGCCACAGCAGAAGCGUUCACGUCGCAGCCCCUGUCAGAUUCUGGGGAAUCUGUGAAUUCUGCUGUAUAUCUC [U54G C62U],0.19
4,UAACAGGGGGCCACAGCAGAAGCGUUCACGUCGCAGCCCCUGUCAGAUUCUGGGGAAUCUGCGAAUUCUGCUGUAUAUCUC [U54G],0.77
5,UAACAGGGGGCCACAGCAGAAGCGUUCACGUCGCAGCCCCUGUCAGAUUCUGGCGAAUCUGCGAAUUCUGCUGGAUAUCUC [U54C U74G],1.39
6,UAACAGGGGGCCACAGCAGAAGCGUUCACGUCGCAGCCCCUGUCAGAUUCUGGCGAAUCUGCGAAUUCUGCUGCAUAUCUC [U54C U74C],1.21
7,UAACAGGGGGCCACAGCAGAAGCGUUCACGUCGCAGCCCCUGUCAGAUUCUGGCGAAUCUGCGAAUUCUGCUGAAUAUCUC [U54C U74A],1.25
8,UAACAGGGGGCCACAGCAGAAGCGUUCACGUCGCAGCCCCUGUCAGAUUCUGGCGAAUCUGCGAAUUCUGAUGUAUAUCUC [U54C C71A],0.39
9,UAACAGGGGGCCACAGCAGAAGCGUUCACGUCGCAGCCCCUGUCAGAUUCUGGCGAAUCUGCGAAUUCUGUUGUAUAUCUC [U54C C71U],0.72
10,UAACAGGGGGCCACAGCAGAAGCGUUCACGUCGCAGCCCCUGUCAGAUUCUGGCGAAUCUGCGAAUUCUGCUGUAAAUCUC [U54C U76A],1.17
11,UAACAGGGGGCCACAGCAGAAGCGUUCACGUCGCAGCCCCUGUCAGAUUCUGGCGAAUCUGCGAAUUCUGCUGUACAUCUC [U54C U76C],1.06
12,UAACAGGGGGCCACAGCAGAAGCGUUCACGUCGCAGCCCCUGUCAGAUUCUGGCGAAUCUGCGAAUUCUGCUGUAGAUCUC [U54C U76G],0.98
13,UAACAGGGGGCCACAGCAGAAGCGUUCACGUCGCAGCCCCUGUCAGAUUCUGGGGAAUCUGCGAAUUCUGCUGUAUGUCUC [U54G A77G],0.74
14,UAACAGGGGGCCACAGCAGAAGCGUUCACGUCGCAGCCCCUGUCAGAUUCUGGCGAAUCUGCCAAUUCUGCUGUAUAUCUC [U54C G63C],1.01
15,UAACAGGGGGCCACAGCAGAAGCGUUCACGUCGCAGCCCCUGUCAGAUUCUGGCGAAUCUGCUAAUUCUGCUGUAUAUCUC [U54C G63U],1.13
16,UAACAGGGGGCCACAGCAGAAGCGUUCACGUCGCAGCCCCUGUCAGAUUCUGGCGAAUCUGCAAAUUCUGCUGUAUAUCUC [U54C G63A],0.73
17,UAACAGGGGGCCACAGCAGAAGCGUUCACGUCGCAGCCCCUGUCAGAUUCUGGCAAAUCUGCGAAUUCUGCUGUAUAUCUC [U54C G55A],0.62
18,UAACAGGGGGCCACAGCAGAAGCGUUCACGUCGCAGCCCCUGUCAGAUUCUGGCUAAUCUGCGAAUUCUGCUGUAUAUCUC [U54C G55U],0.78
19,UAACAGGGGGCCACAGCAGAAGCGUUCACGUCGCAGCCCCUGUCAGAUUCUGGCGAAUCUCCGAAUUCUGCUGUAUAUCUC [U54C G61C],0.3
20,UAACAGGGGGCCACAGCAGAAGCGUUCACGUCGCAGCCCCUGUCAGAUUCUGGCGAAUCUACGAAUUCUGCUGUAUAUCUC [U54C G61A],0.65
21,UAACAGGGGGCCACAGCAGAAGCGUUCACGUCGCAGCCCCUGUCAGAUUCUGGCGAAUCUGCGAAUUCUGCUAUAUAUCUC [U54C G73A],1.26
22,UAACAGGGGGCCACAGCAGAAGCGUUCACGUCGCAGCCCCUGUCAGAUUCUGGCGAAUCUGCGAAUUCUGCUCUAUAUCUC [U54C G73C],1.33
23,UAACAGGGGGCCACAGCAGAAGCGUUCACGUCGCAGCCCCUGUCAGAUUCUGGCGAAUCUGCGAAUUCUGCUUUAUAUCUC [U54C G73U],1.22

row,Variant,self-cleavage
1,UAACAGGGGGCCACAGCAGAAGCGUUCACGUCGCAGCCCCUGUCAGAUUCUGGCGAAUCUGCGAAUUCUGCUGUAUAUCCC [U54C U80C],1.09
2,UAACAGGGGGCCACAGCAGAAGCGUUCACGUCGCAGCCCCUGUCAGAUUCUGGCGAAUCUGCGAAUUCUGCUGUAUAUCAC [U54C U80A],1.17
3,UAACAGGGGGCCACAGCAGAAGCGUUCACGUCGCAGCCCCUGUCAGAUUCUGGGGAUUCUGCGAAUUCUGCUGUAUAUCUC [U54G A57U],0.25
4,UAACAGGGGGCCACAGCAGAAGCGUUCACGUCGCAGCCCCUGUCAGAUUCUGGGGAGUCUGCGAAUUCUGCUGUAUAUCUC [U54G A57G],0.43
5,UAACAGGGGGCCACAGCAGAAGCGUUCACGUCGCAGCCCCUGUCAGAUUCUGGGGAAUCGGCGAAUUCUGCUGUAUAUCUC [U54G U60G],0.42
6,UAACAGGGGGCCACAGCAGAAGCGUUCACGUCGCAGCCCCUGUCAGAUUCUGGGGAAUCCGCGAAUUCUGCUGUAUAUCUC [U54G U60C],0.44
7,UAACAGGGGGCCACAGCAGAAGCGUUCACGUCGCAGCCCCUGUCAGAUUCUGGGGAAUCAGCGAAUUCUGCUGUAUAUCUC [U54G U60A],0.37
8,UAACAGGGGGCCACAGCAGAAGCGUUCACGUCGCAGCCCCUGUCAGAUUCUGGCGAACCUGCGAAUUCUGCUGUAUAUCUC [U54C U58C],0.48
9,UAACAGGGGGCCACAGCAGAAGCGUUCACGUCGCAGCCCCUGUCAGAUUCUGGCGAAACUGCGAAUUCUGCUGUAUAUCUC [U54C U58A],0.33
10,UAACAGGGGGCCACAGCAGAAGCGUUCACGUCGCAGCCCCUGUCAGAUUCUGGCGAAUCUGCGAAUUCUACUGUAUAUCUC [U54C G70A],0.43
11,UAACAGGGGGCCACAGCAGAAGCGUUCACGUCGCAGCCCCUGUCAGAUUCUGGCGAAUCUGCGAAUUCUGCUGUAUAUCUG [U54C C81G],1.3
12,UAACAGGGGGCCACAGCAGAAGCGUUCACGUCGCAGCCCCUGUCAGAUUCUGGCGAAUCUGCGAAUUCUGCUGUAUAUCUU [U54C C81U],1.17
13,UAACAGGGGGCCACAGCAGAAGCGUUCACGUCGCAGCCCCUGUCAGAUUCUGGCGAAUCUGCGAAUCCUGCUGUAUAUCUC [U54C U67C],0.26
14,UAACAGGGGGCCACAGCAGAAGCGUUCACGUCGCAGCCCCUGUCAGAUUCUGGCGAAUCUGCGAAUACUGCUGUAUAUCUC [U54C U67A],0.48
15,UAACAGGGGGCCACAGCAGAAGCGUUCACGUCGCAGCCCCUGUCAGAUUCUGGGGAAUCUGCGAAUUCUGAUGUAUAUCUC [U54G C71A],0.42
16,UAACAGGGGGCCACAGCAGAAGCGUUCACGUCGCAGCCCCUGUCAGAUUCUGGGGAAUCUGCGAAUUCUGCUGUAUAUAUC [U54G C79A],1.18
17,UAACAGGGGGCCACAGCAGAAGCGUUCACGUCGCAGCCCCUGUCAGAUUCUGGCGAAUCUGCGAAUUCUGCAGUAUAUCUC [U54C U72A],0.62
18,UAACAGGGGGCCACAGCAGAAGCGUUCACGUCGCAGCCCCUGUCAGAUUCUGGCGAAUCUGCGAAUUCUGCCGUAUAUCUC [U54C U72C],1.08
19,UAACAGGGGGCCACAGCAGAAGCGUUCACGUCGCAGCCCCUGUCAGAUUCUGGCGAAUCUGCGAAUUCUGCGGUAUAUCUC [U54C U72G],0.87
20,UAACAGGGGGCCACAGCAGAAGCGUUCACGUCGCAGCCCCUGUCAGAUUCUGGGGGAUCUGCGAAUUCUGCUGUAUAUCUC [U54G A56G],0.46
21,UAACAGGGGGCCACAGCAGAAGCGUUCACGUCGCAGCCCCUGUCAGAUUCUGGGGUAUCUGCGAAUUCUGCUGUAUAUCUC [U54G A56U],0.31
22,UAACAGGGGGCCACAGCAGAAGCGUUCACGUCGCAGCCCCUGUCAGAUUCUGGCGAAUCGGCGAAUUCUGCUGUAUAUCUC [U54C U60G],0.5
23,UAACAGGGGGCCACAGCAGAAGCGUUCACGUCGCAGCCCCUGUCAGAUUCUGGCGAAUCAGCGAAUUCUGCUGUAUAUCUC [U54C U60A],0.42

row,Variant,self-cleavage
1,UAACAGGGGGCCACAGCAGAAGCGUUCACGUCGCAGCCCCUGUCAGAUUCUGGCGAAUCCGCGAAUUCUGCUGUAUAUCUC [U54C U60C],0.39
2,UAACAGGGGGCCACAGCAGAAGCGUUCACGUCGCAGCCCCUGUCAGAUUCUGGGGAAACUGCGAAUUCUGCUGUAUAUCUC [U54G U58A],0.2
3,UAACAGGGGGCCACAGCAGAAGCGUUCACGUCGCAGCCCCUGUCAGAUUCUGGGGAACCUGCGAAUUCUGCUGUAUAUCUC [U54G U58C],0.39
4,UAACAGGGGGCCACAGCAGAAGCGUUCACGUCGCAGCCCCUGUCAGAUUCUGGGGAAUCUGCGAAUUCUGCUGUUUAUCUC [U54G A75U],0.96
5,UAACAGGGGGCCACAGCAGAAGCGUUCACGUCGCAGCCCCUGUCAGAUUCUGGCGAAUCUGCGAAUUCUGCUGUAUAUAUC [U54C C79A],1.18
6,UAACAGGGGGCCACAGCAGAAGCGUUCACGUCGCAGCCCCUGUCAGAUUCUGGCGAAUCUGCGAAUUUUGCUGUAUAUCUC [U54C C68U],1.09
7,UAACAGGGGGCCACAGCAGAAGCGUUCACGUCGCAGCCCCUGUCAGAUUCUGGCGAAUCUGCGAAUUGUGCUGUAUAUCUC [U54C C68G],0.29
8,UAACAGGGGGCCACAGCAGAAGCGUUCACGUCGCAGCCCCUGUCAGAUUCUGGCGAAUCUGCGAAUUAUGCUGUAUAUCUC [U54C C68A],0.43
9,UAACAGGGGGCCACAGCAGAAGCGUUCACGUCGCAGCCCCUGUCAGAUUCUGGGGAAUCUGCGAAUUCUGCUAUAUAUCUC [U54G G73A],1.17
10,UAACAGGGGGCCACAGCAGAAGCGUUCACGUCGCAGCCCCUGUCAGAUUCUGGGGAAUCUGCUAAUUCUGCUGUAUAUCUC [U54G G63U],1.03
11,UAACAGGGGGCCACAGCAGAAGCGUUCACGUCGCAGCCCCUGUCAGAUUCUGGGGAAUCUGCAAAUUCUGCUGUAUAUCUC [U54G G63A],0.91
12,UAACAGGGGGCCACAGCAGAAGCGUUCACGUCGCAGCCCCUGUCAGAUUCUGGGGAAUCUGCGUAUUCUGCUGUAUAUCUC [U54G A64U],0.28
13,UAACAGGGGGCCACAGCAGAAGCGUUCACGUCGCAGCCCCUGUCAGAUUCUGGGGAAUCUGCGGAUUCUGCUGUAUAUCUC [U54G A64G],0.6
14,UAACAGGGGGCCACAGCAGAAGCGUUCACGUCGCAGCCCCUGUCAGAUUCUGGCGAAUCUGCGAAUUCUGCUGUAUAACUC [U54C U78A],1.03
15,UAACAGGGGGCCACAGCAGAAGCGUUCACGUCGCAGCCCCUGUCAGAUUCUGGCGAAUCUGCGAAUUCUGCUGUAUACCUC [U54C U78C],0.97
16,UAACAGGGGGCCACAGCAGAAGCGUUCACGUCGCAGCCCCUGUCAGAUUCUGGCGAAUCUGCGAAUUCUGCUGUAUAGCUC [U54C U78G],1.07
17,UAACAGGGGGCCACAGCAGAAGCGUUCACGUCGCAGCCCCUGUCAGAUUCUGGCGAAUCUGCGAAUUCCGCUGUAUAUCUC [U54C U69C],0.52
18,UAACAGGGGGCCACAGCAGAAGCGUUCACGUCGCAGCCCCUGUCAGAUUCUGGCGAAUCUGCGAAUUCAGCUGUAUAUCUC [U54C U69A],0.57
19,UAACAGGGGGCCACAGCAGAAGCGUUCACGUCGCAGCCCCUGUCAGAUUCUGGCGAAUCUGCGAAUUCGGCUGUAUAUCUC [U54C U69G],0.43
20,UAACAGGGGGCCACAGCAGAAGCGUUCACGUCGCAGCCCCUGUCAGAUUCUGGCGAAUCUGCGAAGUCUGCUGUAUAUCUC [U54C U66G],0.39
21,UAACAGGGGGCCACAGCAGAAGCGUUCACGUCGCAGCCCCUGUCAGAUUCUGGCGAAUCUGCGAACUCUGCUGUAUAUCUC [U54C U66C],0.37
22,UAACAGGGGGCCACAGCAGAAGCGUUCACGUCGCAGCCCCUGUCAGAUUCUGGCGAAUCUGCGAAAUCUGCUGUAUAUCUC [U54C U66A],0.52
